Test results published in PMC4499191.
Each block holds one molecule with its values, some of them ahead of it.

Legend:
[1] = target: Nck1 (Nck1-GFP, GST-Nck1 constructs) SH2 domain (UniProt P16333); assay: GST-Nck SH2 pull-down from lysate; settings: reference: wild type
GST-Nck SH2, P16333 = target: T1, GST-Nck SH2, P16333; assay: GST pull-down, anti-HA immunoblot quantified by ImageJ; settings: chain shown with the change; 293T cells transiently transfected with Lck and HA-tagged TSAd constructs; lane 7
T1 chain: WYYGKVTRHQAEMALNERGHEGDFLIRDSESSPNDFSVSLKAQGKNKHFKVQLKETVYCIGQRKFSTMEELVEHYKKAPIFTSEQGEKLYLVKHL

binding against the reference ([1]; sites Y280,Y305): lost
Molecule: TSAd (T cell specific adaptor protein) (from UniProt Q9NP31) Y280,305F

binding against the reference ([1]; sites Y280): weaker
Molecule: TSAd (T cell specific adaptor protein) (from UniProt Q9NP31) Y280F

ratio to parent (GST-Nck SH2, P16333): -0
B1: HA-tagged TSAd WT co-expressed with Lck in 293T cells (tyrosine phosphorylated), Q9NP31-1 Y280F; Y290F; Y305F (protein)
chain: MEFPLAQICPQGSHEAPIPTFSTFQITDMTRRSCQNLGYTAASPQAPEAASNTGNAERAEEVPGEGSLFLQAETRAWFQKTQAHWLLQHGAAPAWFHGFITRREAERLLEPKPQGCYLVRFSESAVTFVLTYRSRTCCRHFLLAQLRDGRHVVLGEDSAHARLQDLLLHYTAHPLSPYGETLTEPLARQTPEPAGLSLRTEESNFGSKSQDPNPQYSPIIKQGQAPVPMQKEGAGEKEPSQLLRPKPPIPAKPQLPPEVYTIPVPRHRPAPRPKPSNPIFNEPDEPIAFFAMGRGSPGEAPSNIFVEVEDEGLPATLGHPVLRKSWSRPVPGGQNTGGSQLHSENSVIGQGPPLPHQPPPAWRHTLPHNLSRQVLQDRGQAWLPLGPPQ
